Values belong to the substance of their own block, whether it stands above or below them.
How the values were obtained:
CD8+ T-cells = assay: In vitro T-cell priming assay with aAPCs loaded with peptide/MHC and anti-CD28, pMHC multimer readout; assay type: cell-based, human; settings: for Wells positive [%]: HLA-A*02 restricted peptides, positive wells among evaluable; for donors (in vitro immunogenicity, positive donors) / wells (in vitro immunogenicity, positive wells): HLA class I peptides, healthy donor CD8+ T-cells, multimer staining
Excerpt: In order to obtain information regarding the immunogenicity of the TUMAPs of the present invention, the inventors performed investigations using an in vitro T-cell priming assay based on repeated stimulations of CD8+ T-cells with artificial antigen presenting cells (aAPCs) loaded with peptide/MHC complexes and anti-CD28 antibody.
In order to perform in vitro stimulations by artificial antigen presenting cells loaded with peptide-MHC complex (pMHC) and anti-CD28 antibody, the inventors first isolated CD8+ T-cells from fresh HLA-A*02 leukapheresis products via positive selection using CD8 microbeads (Miltenyi Biotec, Bergisch-Gladbach, Germany) of healthy donors obtained from the University clinics Mannheim, Germany, after informed consent.
PBMCs and isolated CD8+ lymphocytes were incubated in T-cell medium (TCM) until use consisting of RPMI-Glutamax (Invitrogen, Karlsruhe, Germany) supplemented with 10% heat inactivated human AB serum (PAN-Biotech, Aidenbach, Germany), 100 U/ml Penicillin/100 μg/ml Streptomycin (Cambrex, Cologne, Germany), 1 mM sodium pyruvate (CC Pro, Oberdorla, Germany), 20 μg/ml Gentamycin (Cambrex). 2.5 ng/ml IL-7 (PromoCell, Heidelberg, Germany) and 10 U/ml IL-2 (Novartis Pharma, Nürnberg, Germany) were also added to the TCM at this step.
Generation of pMHC/anti-CD28 coated beads, T-cell stimulations and readout was performed in a highly defined in vitro system using four different pMHC molecules per stimulation condition and 8 different pMHC molecules per readout condition.
The purified co-stimulatory mouse IgG2a anti human CD28 Ab 9.3 (Jung et al., 1987) was chemically biotinylated using Sulfo-N-hydroxysuccinimidobiotin as recommended by the manufacturer (Perbio, Bonn, Germany). Beads used were 5.6 μm diameter streptavidin coated polystyrene particles (Bangs Laboratories, Illinois, USA).
800.000 beads/200 μl were coated in 96-well plates in the presence of 4×12.5 ng different biotin-pMHC, washed and 600 ng biotin anti-CD28 were added subsequently in a volume of 200 μl. Stimulations were initiated in 96-well plates by co-incubating 1×10^6 CD8+ T-cells with 2×10^5 washed coated beads in 200 μl TCM supplemented with 5 ng/ml IL-12 (PromoCell) for 3 days at 37° C. Half of the medium was then exchanged by fresh TCM supplemented with 80 U/ml IL-2 and incubating was continued for 4 days at 37° C. This stimulation cycle was performed for a total of three times. For the pMHC multimer readout using 8 different pMHC molecules per condition, a two-dimensional combinatorial coding approach was used as previously described (Andersen et al., 2012) with minor modifications encompassing coupling to 5 different fluorochromes. Finally, multimeric analyses were performed by staining the cells with Live/dead near IR dye (Invitrogen, Karlsruhe, Germany), CD8-FITC antibody clone SK1 (BD, Heidelberg, Germany) and fluorescent pMHC multimers. For analysis, a BD LSRII SORP cytometer equipped with appropriate lasers and filters was used. Peptide specific cells were calculated as percentage of total CD8+ cells. Evaluation of multimeric analysis was done using the FlowJo software (Tree Star, Oreg., USA). In vitro priming of specific multimer+ CD8+ lymphocytes was detected by comparing to negative control stimulations.

HLA-A*02:01 = HLA-A*02:01 (Homo sapiens, UniProt P04439, D140Y/D185E/D98H/E176V/E277Q/G131W/G231S/I119V/I121R/I166T/I218V/L300P/L318F/N151K/N90K/P208A/P217A/Q86G/Q94H/R138H/R169H/T345S); assay: MHC binding assay (UV-ligand exchange, beta2m ELISA, peptide exchange yield); settings: binding to HLA-A*02:01
Summary of the method: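 Peptide–HLA-A*02:01 complexes formed by UV-ligand exchange, in which a UV-cleavable peptide is replaced by the test peptide. Exchange products, diluted 100-fold, were captured on streptavidin plates and detected with HRP anti-β2m ELISA at 450 nm. Yield was quantified against refolded monomer standards at 15-500 ng/ml.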

Substance: 3 (RLIPDTLYSV; listed as Homo sapiens) [compound 3]
Wells positive [%] (CD8+ T-cells): “+++” (50%-69% = +++)

Substance: 7 (YLTRHLAVL; listed as Homo sapiens) [compound 7]
Wells positive [%] (CD8+ T-cells): “+” (<20% = +)
Peptide exchange (MHC class I binding score, peptide exchange yield) (HLA-A*02:01): “++” (≥20% = ++)

Substance: 17 (ALAAARVEL; listed as Homo sapiens) [compound 17]
Wells positive [%] (CD8+ T-cells): “++” (20%-49% = ++)
Peptide exchange (MHC class I binding score, peptide exchange yield) (HLA-A*02:01): “+++” (≥50 = +++)

Substance: 18 (FLSSLKGGLL; listed as Homo sapiens) [compound 18]
Wells positive [%] (CD8+ T-cells): “+” (<20% = +)
Peptide exchange (MHC class I binding score, peptide exchange yield) (HLA-A*02:01): “+++” (≥50 = +++)

Substance: 19 (RLYTKLLNEA; listed as Homo sapiens) [compound 19]
Wells positive [%] (CD8+ T-cells): “+++” (50%-69% = +++)
Peptide exchange (MHC class I binding score, peptide exchange yield) (HLA-A*02:01): “+++” (≥50 = +++)

Substance: 22 (GLIDEVMVL; listed as Homo sapiens) [compound 22]
Wells positive [%] (CD8+ T-cells): “++” (20%-49% = ++)
Peptide exchange (MHC class I binding score, peptide exchange yield) (HLA-A*02:01): “+++” (≥50 = +++)

Substance: 32 (KLNTETFGV; listed as Homo sapiens) [compound 32]
Wells positive [%] (CD8+ T-cells): “++” (20%-49% = ++)
Peptide exchange (MHC class I binding score, peptide exchange yield) (HLA-A*02:01): “++” (≥20% = ++)

Substance: 42 (SILDDSFKL; listed as Homo sapiens) [compound 42]
Wells positive [%] (CD8+ T-cells): “+” (<20% = +)
Peptide exchange (MHC class I binding score, peptide exchange yield) (HLA-A*02:01): “++++” (≥75% = ++++)

Substance: 47 (KLYERCEVV; listed as Homo sapiens) [compound 47]
Wells positive [%] (CD8+ T-cells): “+” (<20% = +)
Peptide exchange (MHC class I binding score, peptide exchange yield) (HLA-A*02:01): “++” (≥20% = ++)

Substance: 59 (LLTDNVVKL; listed as Homo sapiens) [compound 59]
Wells positive [%] (CD8+ T-cells): “+” (<20% = +)
Peptide exchange (MHC class I binding score, peptide exchange yield) (HLA-A*02:01): “+++” (≥50 = +++)

Substance: 124 (RVLPPSALQSV; listed as Homo sapiens) [compound 124]
Wells positive [%] (CD8+ T-cells): “+” (<20% = +)
Peptide exchange (MHC class I binding score, peptide exchange yield) (HLA-A*02:01): “+++” (≥50 = +++)

Substance: 133 (RTFEKIEEV; listed as Homo sapiens) [compound 133]
Wells positive [%] (CD8+ T-cells): “+” (<20% = +)
Peptide exchange (MHC class I binding score, peptide exchange yield) (HLA-A*02:01): “++” (≥20% = ++)

Substance: 178 (YLFREPATI; listed as Homo sapiens) [compound 178]
Peptide exchange (MHC class I binding score, peptide exchange yield) (HLA-A*02:01): “++” (≥20% = ++)

Substance: 181 (NLFDLGGQYLRV; listed as Homo sapiens) [compound 181]
Peptide exchange (MHC class I binding score, peptide exchange yield) (HLA-A*02:01): “+++” (≥50 = +++)

Substance: 182 (SLNKWIFTV; listed as Homo sapiens) [compound 182]
Peptide exchange (MHC class I binding score, peptide exchange yield) (HLA-A*02:01): “++++” (≥75% = ++++)

Substance: 184 (SLLDENNVSSYL; listed as Homo sapiens) [compound 184]
Peptide exchange (MHC class I binding score, peptide exchange yield) (HLA-A*02:01): “+++” (≥50 = +++)

Substance: 188 (FLVDGPRVQL; listed as Homo sapiens) [compound 188]
Peptide exchange (MHC class I binding score, peptide exchange yield) (HLA-A*02:01): “+++” (≥50 = +++)

Substance: 189 (AISEVIGKITA; listed as Homo sapiens) [compound 189]
Peptide exchange (MHC class I binding score, peptide exchange yield) (HLA-A*02:01): “+++” (≥50 = +++)

Substance: 219 (FLDEKGRCV; listed as Homo sapiens) [compound 219]
donors (in vitro immunogenicity, positive donors) (CD8+ T-cells): +++ (50% − 69% = +++)
wells (in vitro immunogenicity, positive wells) (CD8+ T-cells): ++ (20% − 49% = ++)

Substance: 220 (KMDPVAYRV; listed as Homo sapiens) [compound 220]
donors (in vitro immunogenicity, positive donors) (CD8+ T-cells): ++++ (>=70% = ++++)
wells (in vitro immunogenicity, positive wells) (CD8+ T-cells): +++ (50% − 69% = +++)

More lines, main results first:

Peptide exchange (MHC class I binding score, peptide exchange yield) (HLA-A*02:01): ″+++” (≥50 = +++)
Substance: 1 (ALIKQLFEA; listed as Homo sapiens) [compound 1]
Wells positive [%] (CD8+ T-cells): ″+” (<20% = +)

Peptide exchange (MHC class I binding score, peptide exchange yield) (HLA-A*02:01): “++” (≥20% = ++)
Substance: 2 (ALLPRYFFL; listed as Homo sapiens) [compound 2]
Wells positive [%] (CD8+ T-cells): “++++” (> = 70% = ++++)

Peptide exchange (MHC class I binding score, peptide exchange yield) (HLA-A*02:01): “++++” (≥75% = ++++)
Substance: 5 (WLFDDGGLTL; listed as Homo sapiens) [compound 5]
Wells positive [%] (CD8+ T-cells): “++” (20%-49% = ++)

Peptide exchange (MHC class I binding score, peptide exchange yield) (HLA-A*02:01): “++” (≥20% = ++)
Substance: 9 (ILDDHLSRV; listed as Homo sapiens) [compound 9]
Wells positive [%] (CD8+ T-cells): “+” (<20% = +)

Peptide exchange (MHC class I binding score, peptide exchange yield) (HLA-A*02:01): “+++” (≥50 = +++)
Substance: 10 (RMYNKIFAI; listed as Homo sapiens) [compound 10]
Wells positive [%] (CD8+ T-cells): “++++” (> = 70% = ++++)

Peptide exchange (MHC class I binding score, peptide exchange yield) (HLA-A*02:01): “+++” (≥50 = +++)
Substance: 11 (YLFEKTFNM; listed as Homo sapiens) [compound 11]
Wells positive [%] (CD8+ T-cells): “+” (<20% = +)

Peptide exchange (MHC class I binding score, peptide exchange yield) (HLA-A*02:01): “+++” (≥50 = +++)
Substance: 12 (ALVQGILERV; listed as Homo sapiens) [compound 12]
Wells positive [%] (CD8+ T-cells): “++++” (> = 70% = ++++)

Peptide exchange (MHC class I binding score, peptide exchange yield) (HLA-A*02:01): “+++” (≥50 = +++)
Substance: 13 (FLLAEDTKV; listed as Homo sapiens) [compound 13]
Wells positive [%] (CD8+ T-cells): “++” (20%-49% = ++)

Peptide exchange (MHC class I binding score, peptide exchange yield) (HLA-A*02:01): “+++” (≥50 = +++)
Substance: 21 (VLIDHRWVL; listed as Homo sapiens) [compound 21]
Wells positive [%] (CD8+ T-cells): “+” (<20% = +)

Peptide exchange (MHC class I binding score, peptide exchange yield) (HLA-A*02:01): “+++” (≥50 = +++)
Substance: 31 (LLYGKYVSV; listed as Homo sapiens) [compound 31]
Wells positive [%] (CD8+ T-cells): “++” (20%-49% = ++)

Peptide exchange (MHC class I binding score, peptide exchange yield) (HLA-A*02:01): “+++” (≥50 = +++)
Substance: 37 (GLFAGLGGAGA; listed as Homo sapiens) [compound 37]
Wells positive [%] (CD8+ T-cells): “+” (<20% = +)

Peptide exchange (MHC class I binding score, peptide exchange yield) (HLA-A*02:01): “++” (≥20% = ++)
Substance: 38 (SLAPTPVSA; listed as Homo sapiens) [compound 38]
Wells positive [%] (CD8+ T-cells): “+” (<20% = +)

Peptide exchange (MHC class I binding score, peptide exchange yield) (HLA-A*02:01): “++” (≥20% = ++)
Substance: 64 (KTLGKLWRL; listed as Homo sapiens) [compound 64]
Wells positive [%] (CD8+ T-cells): “++++” (> = 70% = ++++)

Peptide exchange (MHC class I binding score, peptide exchange yield) (HLA-A*02:01): “++” (≥20% = ++)
Substance: 123 (KTLERSYLL; listed as Homo sapiens) [compound 123]
Wells positive [%] (CD8+ T-cells): “+” (<20% = +)

Peptide exchange (MHC class I binding score, peptide exchange yield) (HLA-A*02:01): “+++” (≥50 = +++)
Substance: 127 (RLAELTVDEFLA; listed as Homo sapiens) [compound 127]
Wells positive [%] (CD8+ T-cells): “+” (<20% = +)

Peptide exchange (MHC class I binding score, peptide exchange yield) (HLA-A*02:01): “+++” (≥50 = +++)
Substance: 132 (ALLNAILHSA; listed as Homo sapiens) [compound 132]
Wells positive [%] (CD8+ T-cells): “+” (<20% = +)

Peptide exchange (MHC class I binding score, peptide exchange yield) (HLA-A*02:01): “+++” (≥50 = +++)
Substance: 179 (RLLSPLSSA; listed as Homo sapiens) [compound 179]

Peptide exchange (MHC class I binding score, peptide exchange yield) (HLA-A*02:01): “+++” (≥50 = +++)
Substance: 183 (TLQEVVTGV; listed as Homo sapiens) [compound 183]

Peptide exchange (MHC class I binding score, peptide exchange yield) (HLA-A*02:01): “+++” (≥50 = +++)
Substance: 185 (VLYTGVVRV; listed as Homo sapiens) [compound 185]

Peptide exchange (MHC class I binding score, peptide exchange yield) (HLA-A*02:01): “+++” (≥50 = +++)
Substance: 186 (KMSEKILLL; listed as Homo sapiens) [compound 186]

Peptide exchange (MHC class I binding score, peptide exchange yield) (HLA-A*02:01): “+++” (≥50 = +++)
Substance: 187 (GLHNVVYGI; listed as Homo sapiens) [compound 187]

Peptide exchange (MHC class I binding score, peptide exchange yield) (HLA-A*02:01): “+++” (≥50 = +++)
Substance: 190 (AMAEMVLQV; listed as Homo sapiens) [compound 190]

Peptide exchange (MHC class I binding score, peptide exchange yield) (HLA-A*02:01): “++++″ (≥75% = ++++)
Substance: 191 (QLFSEIHNL; listed as Homo sapiens) [compound 191]
